Patent publication US20250368742A1
Residue numbers refer to the chain shown, from its start.

B1: 13A9 (antibody, human IgG1, kappa, V domains shown)
VH: QVQLQQSGAELVRPGTSVKVSCKASGYAFTNYLIEWVKQRPGQGLEWIGAINPGSGATNYNEKFKDKARLTADKSSNTAYLQFSSLTSDDSAVYFCARFLGNYFDNWGQGATLTVSS
VL: DIQMTQSPASLSASVGETVTITCRASGNIHSYLAWYQQKQGKSPQLLVYYAETLADGVPSRFSGRGSGTQYSLKINSLQPEDFGSYFCQQFWTTPYTFGGGTKVEIKR
B2: 3F9 (antibody, human IgG1, kappa, V domains shown)
VH: QVQLVESGGGLVKPGGSLRLSCAASGFTFSNYAMSWIRQAPGKGLEWVSYISPGGDYIYYADSVKGRFTISRDNAKNSLYLQMNSLRAEDTAVYYCTTDRRHYGSYAMDYWGQGTLVTVSS
VL: DIVMTQSPLSLPVTPGEPASISCRSSKSLLHSNLNTYLYWFLQKPGQSPQILIYRMSNLASGVPDRFSGSGSGTAFTLKISRVEAEDVGVYYCMQHLEYPFTFGPGTKLEIKR
B3: 6E1.1.12 (antibody, human IgG1, kappa, V domains shown)
VH: QGQMQQSGAELVKPGASVKLSCKTSGFTFSDNYISWLKQKPGQSLEWIAWIYAGTGGSSYNQKFRDKAQLTVDTSSRTAYMQLSSLTTEDSAIYYCARHDYYGTSGAWFAYWGRGTLVTVSA
VL: DVLMTQTPLSLPVSLGDQASISCRSSQHIVHSNENTYLEWYLQKPGQSPKLLIYKVSNRFSGVPDRFSGSGSGTDFTLKISRVEAEDLGVYYCFQGSHVPWTFGGGTKVEIKR
B4: #31 (antibody, V domains shown)
VH: EVQLQQSGPELVKPGASVKVSCKASGYAFTKYNIYWVKQSHGKSLEWIGYIDPYNGGTVQNQKFKGKATLTVDKSSSTAYMHLNSLTSEDSAVYYCATTDGYSLFTYWGQGTLVTVSS
VL: DIQMTQTTSSLSASLGDRVTISCRASQDIGNYLNWYQQKPDGTVKLLIYYTSRLHSGVPSRFSGSGSGTDYSLTISNLEQEDIATYFCQQGNTLPFTFGSGTKLEIK
B5: #34 (antibody, V domains shown)
VH: B4 VH with E1Q, Q5K
VL: DIVLTQSPTTMAASPGEKITITCSASSSISSNYLHWYQQKPGFSPKLLIYRTSNLASGVPARFSGSGSGTSYSLTIGTMEAEDVATYYCQQGSSIPFTFGSGTKLEIK
B6: #40 (antibody, V domains shown)
VH: B4 VH with E1Q, Q60Y, S118A
VL: DIQMTQTTSSLSASLGDRVTITCSAGQGINNYLNWYQQKPDGTVKLLIFYTSSLQSGVPSRFSGSGSGADYSLTISNLEPEDIATYYCQQYSKLPLTFGAGTKLELK
B7: #36 (antibody, V domains shown)
VH: B4 VH with E1Q, Q60Y, S118A
VL: B4 VL with G30S
B8: #38 (antibody, V domains shown)
VH: QVQLQQSGAELARPGASVKLSCKASGYTFSIHWMQWVKQRPGQGLEWIGAIYPGNGDTKYTQKFKGKATLTADKSSSTAYMQLSNLASEDSAVYYCATLYGNYEAYWGQGTLVTVSA
VL: DIVLTQSPASLSASVGETVTITCGASENIYGALNWYQRKQGKSPQLLIYGTTNLADGMSSRFSGSGSGRQYSLKISSLHPDDVATYYCQNVLTTPPWTFGGGTKLEIK
B9: #39 (antibody, V domains shown)
VH: QVQLQQSGAELVRPGTSVKVSCKASGYAFTDYLIEWVKQRPGQGLEWIGGINPGSGSTNYNEKFKGKAILTADKSSSTAYMQLSSLTSDDSAVYFCARLDGNYVGYWGQGTTLTVSS
VL: DILLTQSPASLSASVGETVTITCRASGNIHNYLAWYQQKQGKSPQLLVYHAKTLADGVPSRFSGSGSGTQYSLKINSLQPEDFGSYYCQHFWSTPWTFGGGTKLEIK

Biological target: shed MICA002 polypeptide (human) (UniProt Q29983)
Assay: ELISA: antibody titrated on anti-hFc plate, shed MICA002 captured, detection NKG2D-His + anti-His-HRP

EC50 [µg/mL] | Binder
0.06 | B1
0.167 | B2

Biological target: shed MICA004 polypeptide (human) (UniProt Q29983)
Assay: capture ELISA (anti-hFc / antibody / shed antigen / biotin-6D4)

EC50 [µg/mL] | maxOD | Binder
0.255 | 2.7 | B2

Biological target: shed MICA002 polypeptide (human) (UniProt Q29983)
Assay: as above

EC50 [µg/mL] | maxOD | Binder
0.131 | 3.96 | B2

Biological target: shed MICA008 polypeptide (human) (UniProt Q29983)
Assay: as above

EC50 [µg/mL] | maxOD | Binder
0.134 | 1.51 | B2

Biological target: shed MICA004 polypeptide (human) (UniProt Q29983)
Assay: as above
Remark: another data set of the same source

EC50 [µg/mL] | Max OD450 | Binder
0.47 | 0.35 | B1
0.129 | 1.83 | B2

Biological target: shed MICB005 polypeptide (human) (UniProt Q29980)
Assay: as above

EC50 [µg/mL] | Max OD450 | Binder
0.088 | 1.28 | B1

Biological target: shed MICA002 polypeptide (human) (UniProt Q29983)
Assay: as above
Remark: another data set of the same source

EC50 [µg/mL] | Max OD450 | Binder
0.176 | 1.42 | B1
0.107 | 1.82 | B2

Biological target: shed MICA008 polypeptide (human) (UniProt Q29983)
Assay: as above
Remark: another data set of the same source

EC50 [µg/mL] | Max OD450 | Binder
0.191 | 0.48 | B1
0.105 | 1.15 | B2

Biological target: shed MICA004 polypeptide (human) (UniProt Q29983)
Assay: ELISA: antibody titrated on anti-hFc plate, shed MICA004 captured, detection NKG2D-His + anti-His-HRP

EC50 [µg/mL] | Binder
0.083 | B1
0.071 | B2

Biological target: shed MICA004 polypeptide (human) (UniProt Q29983)
Assay: capture ELISA (anti-hFc / antibody / shed antigen / biotin-6D4)
Remark: another data set of the same source

EC50 [µg/mL] | Max OD450 | Binder
0.42 | 1.13 | B3
0.2 | 1.72 | B4
0.46 | 1.23 | B5
0.38 | 1.22 | B6
0.47 | 1.31 | B7
0.09 | 2.66 | B8
0.33 | 0.89 | B1
0.14 | 2.49 | B2
0.34 | 0.11 | B9

Biological target: shed MICB005 polypeptide (human) (UniProt Q29980)
Assay: as above
Remark: another data set of the same source

EC50 [µg/mL] | Max OD450 | Binder
0.41 | 2.42 | B3
0.72 | 1.37 | B4
0.56 | 0.17 | B5
0.73 | 0.17 | B6
0.84 | 0.68 | B7
0.02 | 2.97 | B8
0.04 | 2.91 | B1
0.1 | 2.86 | B9

Biological target: shed MICA002 polypeptide (human) (UniProt Q29983)
Assay: as above
Remark: another data set of the same source

EC50 [µg/mL] | Max OD450 | Binder
0.22 | 3.35 | B3
0.13 | 3.16 | B4
0.34 | 2.75 | B5
0.31 | 2.89 | B6
0.32 | 3 | B7
0.04 | 3.32 | B8
0.14 | 3.1 | B1
0.09 | 3.3 | B2
0.36 | 1.01 | B9

Biological target: shed MICA008 polypeptide (human) (UniProt Q29983)
Assay: as above
Remark: another data set of the same source

EC50 [µg/mL] | Max OD450 | Binder
0.22 | 0.15 | B3
0.26 | 0.19 | B4
0.3 | 0.12 | B5
0.44 | 0.13 | B6
0.38 | 0.16 | B7
0.2 | 0.16 | B8
0.22 | 0.15 | B1
0.22 | 0.34 | B2
0.52 | 0.03 | B9
